According to patent publication US7807387B2, “Biological agent that causes IL-6 receptor release” (Meyer Pharmaceuticals LLC, priority 2003, dated 2010):

Tested on: LPS-induced septic shock
Assay: LPS/galactosamine-induced septic shock model
Type: in vivo, Balb/c mice
Experimental: A classic model for determining effectiveness of agents against cytokine-mediated inflammation is endotoxin-induced septic shock (Morrison et al., J Infect Dis 162:1063, 1990).
The septic shock experiment was conducted as follows. Female Balb/c mice were randomized by weight into 6 treatment groups. Sepsis was induced by injecting 10 μg LPS and 7 mg galactosamine in the lateral or dorsal caudal vein. Some of the groups were pretreated with 50,000 FU of MP8 simultaneously or 3 hours in advance of the LPS challenge to determine whether there was a protective effect.
FIG. 8 is a Kaplan-Meier survival curve, showing the mortality in each of the treatment groups in the study. Without any treatment or challenge, there is no effect on the animals, and the line stays at the top. Life-compromising challenge causes the line to fall to the bottom of the graph in a step-wise fashion as each animal succumbs. Treatment that is protective against the challenge maintains the line near the top of the graph.
The enzyme was administered in a volume of 110 μL at one hour before the LPS challenge.
Stability of the clinical effect of MP8 was determined in the septic shock model. Female Balb/c mice were injected with 300,000 FU of MP8 that had been stored for 4 days at −70° C., or 7 days at 4° C. One hour later, the mice were challenged with 10 μg LPS and 7 mg galactosamine as before.
In this example, durability of receptor cleavage in vivo was determined by treating animals subcutaneously up to three days in advance with 300,000 FU of MP8. The mice were then challenged with […] LPS and 7 mg galactosamine in the usual fashion.
Sepsis was induced in Balb/c mice by administering 10 μg LPS and […] galactosamine, as in Example 3. Randomized groups were pretreated with up to 40 μg MP8-FL2 one hours in advance of the LPS challenge.

B1: MP8: polypeptide having the sequence of SEQ. ID NO:41 (usually with a HIS tag); cytokine receptor releasing protein expressed in E. coli (protein, listed as Homo sapiens)
chain: WIQRIRHEGNSTVYEWRTGTEPSVVERPHLEELPEQVAEDAIDWGDFGVEAVSEGTDSGISAEAAGIDWGIFPESDSKDPGGDGIDWGDDAVALQITVLEAGTQAPEGVARGPDALTLLEYTETRNQFLDELMELEIFLAQRAVELSEEADVLSVSQFQLAPAILQGQTKEKMVTMVSVLEDLIGKLTSLQLQHLFMILASPRYVDRVTEFLQQKLKQSQLLALKKELMVQKQQEALEEQAALEPKLDLLLEKTKELQKLIEADISKRYSGRPVNLMGTSL
modifications: HIS tag
notes: ID NO:41 (usually with a HIS tag); cytokine receptor releasing protein expressed in E. coli
B1 was tested, and the “protection against LPS-induced septic shock” value (50,000 FU, simultaneously with LPS challenge or 3 hours in advance) was “fully protective”, the “clinical efficacy in septic shock model after storage” value (300,000 FU stored 4 days at −70° C. or 7 days at 4° C., one hour before challenge) was “can be frozen without causing a loss in clinical efficacy” and the “protection against septic shock when administered days in advance” value (300,000 FU subcutaneously up to three days in advance) was “able to protect most mice up to 3 days after administration”. For the same molecule, the “protection against LPS-induced septic shock” value (300,000 FU, one hour before LPS challenge) was “completely protective” and the “protection against LPS-induced septic shock” value (single dose of 30,000 FU, one hour before LPS challenge) was “able to protect a proportion of the challenged subjects”.
